The source of these data is PMC8041770.

Assay [1] deals with yeast surface-displayed human LIF (Ser23 to Phe203) (human) (UniProt P15018). Put plainly: flow cytometry on cells; hLIF displayed on yeast, soluble Fc fusion titrated in PBS with 1 mg/ml BSA; bound Fc detected by fluorescent anti-Fc antibody; apparent Kd by non-linear regression.
Assay [2] addresses yeast-displayed human LIF (hLIF, Ser23 to Phe203) (human) (UniProt P15018). Briefly: flow cytometry on cells; LIF displayed on yeast (EBY100), soluble Fc fusion titrated in PBS with 1 mg/ml BSA, Fc detected with fluorescent secondary antibody; apparent Kd by non-linear regression.
For assay [3], the target named is recombinant human LIF, histidine-tagged (hLIF-His) (human) (UniProt P15018).
For assay [4] the target is unchanged. Briefly: Kinetic Exclusion Assay (KinExA); both partners soluble; hLIF-His constant (100 pM for eLIFR-Fc, 250 pM for hLIFR-Fc), LIFR-Fc serially diluted, 18 h, BPBS with 0.02% sodium azide; free LIF-His captured on LIFR-Fc-coated PMMA beads; apparent Kd, n-curve analysis. For orientation: In KinExA the mixture passes briefly over coated beads that capture the unbound partner.

B1: full-length eLIFR-Fc (Fc fusion)
chain: QKKGAPHDLKCVTNNLQVWNCSWKAPSGTGRGTDYEVCIENRSRSCYQLEKTSIKIPALSHGDYEITINSLHDFGSSTSKFTLNEQNVSLIPDTPEILNLSADFSTSTLYLKWNDRGSVFPHRSNVIWEIKVLRKESMELVKLVTHNTTLNGKDTLHHWSWASDMPLECAIHFVEIRCYIDNLHFSGLEEWSDWSPVKNISWIPDSQTKVFPQDKVVPVGSDITFCCVSQEKVLSALIGRTNCPLIHLDGENVAIKVRNVSASASSGTNVVFITEDDIFGTVIFAGYPPDTPQQLNCETHDLKEIICSWNPGRVTALVGPRATSYTLVESFSGKYVRLKRAEAPTNESYQLLFQMLPNQEIYNFTLNAHNPLGRSQSTILVNITEKVYPHTPTSFKVKDINSTAVKLSWHLPGNFAKINFLCEIEIKKSNSVQEQRNVTIKGVENSSYLVALDKLNPYTLYTFRIRCSTETFWKWSKWSNKKQHLTTEASPSKGPDTWREWSSDGKNLIIYWKPLPINEANGKILSYNVSCSSDEETQSLSEIPDPQHKAEIRLDKNDYIISVVAKNSVGSSPPSKIASMEIPNDDLKIEQVVGMGKGILLTWHYDPNMTCDYVIKWCNSSRSEPCLMDWRKVPSNSTETVIESDEFRPGIRYNFFLYGCRNQGYQLLRSMIGYIEELAPIVAPNFTVEDTSADSILVKWEDIPVEELRGFLRGYLFYFGKGERDTSKMRVLESGRSDIKVKNITDISQKTLRIADLQGKTSYHLVLRAYTDGGVGPEKSMYVVTKENSVGLIIAILIPVAVAVIVGVVTSILCYRKREWIKETFYPDIPNPE
Take B1: the Kd in assay [1] is 0.35 nM.

B2: C-terminal eLIFR-Fc fusion containing a (Glycine)4Serine linker (Fc fusion)
chain: GGGGSDLKCVTNNLQVWNCSWKAPSGTGRGTDYEVCIENRSRSCYQLEKTSIKIPALSHGDYEITINSLHDFGSSTSKFTLNEQNVSLIPDTPEILNLSADFSTSTLYLKWNDRGSVFPHRSNVIWEIKVLRKESMELVKLVTHNTTLNGKDTLHHWSWASDMPLECAIHFVEIRCYIDNLHFSGLEEWSDWSPVKNISWIPDSQTKVFPQDKVVPVGSDITFCCVSQEKVLSALIGRTNCPLIHLDGENVAIKVRNVSASASSGTNVVFITEDDIFGTVIFAGYPPDTPQQLNCETHDLKEIICSWNPGRVTALVGPRATSYTLVESFSGKYVRLKRAEAPTNESYQLLFQMLPNQEIYNFTLNAHNPLGRSQSTILVNITEKVYPHTPTSFKVKDINSTAVKLSWHLPGNFAKINFLCEIEIKKSNSVQEQRNVTIKGVENSSYLVALDKLNPYTLYTFRIRCSTETFWKWSKWSNKKQHLTTEAS
With B2, the Kd in assay [2] is 0.02 nM.

B3: hLIFR-Fc (wild-type human LIFR CBM I–Ig-like–CBM II fused to hIgG1 Fc) (Fc fusion)
chain: QKKGAPHDLKCVTNNLQVWNCSWKAPSGTGRGTDYEVCIENRSRSCYQLEKTSIKIPALSHGDYEITINSLHDFGSSTSKFTLNEQNVSLIPDTPEILNLSADFSTSTLYLKWNDRGSVFPHRSNVIWEIKVLRKESMELVKLVTHNTTLNGKDTLHHWSWASDMPLECAIHFVEIRCYIDNLHFSGLEEWSDWSPVKNISWIPDSQTKVFPQDKVILVGSDITFCCVSQEKVLSALIGHTNCPLIHLDGENVAIKIRNISVSASSGTNVVFTTEDNIFGTVIFAGYPPDTPQQLNCETHDLKEIICSWNPGRVTALVGPRATSYTLVESFSGKYVRLKRAEAPTNESYQLLFQMLPNQEIYNFTLNAHNPLGRSQSTILVNITEKVYPHTPTSFKVKDINSTAVKLSWHLPGNFAKINFLCEIEIKKSNSVQEQRNVTIKGVENSSYLVALDKLNPYTLYTFRIRCSTETFWKWSKWSNKKQHLTTEAS
With B3, the IC50 of inhibition of LIF (20 pM) signalling through LIFR/gp130 in HeLa STAT3 luciferase reporter cells in assay [3] is 1.8 nM. In assay [4], the Kd worked out at 1.1 nM.
